In experiment [1] the target is T1, purified recombinant MPV vCCI (monkeypox virus viral CC-chemokine inhibitor, product of MPV ORF-[cha (monkeypox virus, UniProt P0DTM9 17-246)). Briefly: mobility shift assay.
For experiment [2], the target named is T1, purified recombinant MPV vCCI …. The experiment can be described thus: native PAGE mobility shift (1:1 molar ratio); co-immunoprecipitation.

This note sets out measurements from patent publication US20090291895A1 (published 2009).

B1: mouse MCP-1 (ligand)
chain: not shown
Turning to B1, the binding result in experiment [1] was “binds”.

B2: purified recombinant 6x-histidine tagged rhesus MIP-1alpha (ligand)
chain: ADTPTSCCFSYISRQIPQNFIADYFETNSQCSKPGVIFLTKRGRQVCADPSKEWVQKYVSDLELSAHHHHHH
notes: also called rhMIP-1α; rhMIP1α
As for B2, in experiment [2], the binding result is “binds”.

B3: mouse MIP-1alpha (ligand)
chain: APYGADTPTACCFSYSRKIPRQFIVDYFETSSLCSQPGVIFLTKRNRQICADSKETWVQEYITDLELNA
B3: the binding result in experiment [1] was “binds”.
